Laboratory results as given in US20240058465A1 (SUTRO BIOPHARMA, published 2024).
Positions count from the first letter of the chain named.

B1: SRP2188-F08 (antibody, IgG1, V domains shown)
VH: EVQLVESGGGLVQPGGSLRLSCAASGFNIPDFEIHWVRQAPGKGLEWVARIEPDDGATDYADSVKGRFTISADTSKNTAYLQMNSLRAEDTAVYYCARDYGVFDYWGQGTLVTVSS
VL: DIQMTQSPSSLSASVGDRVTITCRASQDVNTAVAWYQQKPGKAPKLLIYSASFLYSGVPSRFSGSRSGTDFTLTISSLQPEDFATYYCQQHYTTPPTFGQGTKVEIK
notes: IgG1 with trastuzumab LC; HIS- and FLAG-tagged; cell-free expressed
B2: SRP2188-F11 (antibody, IgG1, V domains shown)
VH: B1 VH with P30T, D31G, F32Y, E33D, A49G, R50G, E52D, D54E
VL: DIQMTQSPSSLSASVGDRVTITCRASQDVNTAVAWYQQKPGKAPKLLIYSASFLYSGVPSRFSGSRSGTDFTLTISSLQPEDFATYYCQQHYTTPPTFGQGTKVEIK
notes: as for B1
B3: SRP2188-G02 (antibody, IgG1, V domains shown)
VH: B1 VH with P30V, D31G, F32Y, E33D, G42S, A49G, R50G, E52D, D54N
VL: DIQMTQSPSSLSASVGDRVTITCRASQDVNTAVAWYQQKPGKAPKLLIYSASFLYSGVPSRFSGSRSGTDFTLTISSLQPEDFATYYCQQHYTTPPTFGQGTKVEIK
notes: as for B1
B4: SRP2188-G03 (antibody, IgG1, V domains shown)
VH: B1 VH with P30V, F32Y, E33D, A49V, R50G, E52D, D54R, A57S, Y100F
VL: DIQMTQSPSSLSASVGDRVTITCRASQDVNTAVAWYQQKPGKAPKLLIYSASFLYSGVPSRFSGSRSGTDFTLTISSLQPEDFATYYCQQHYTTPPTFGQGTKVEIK
notes: as for B1
B5: Conjugate 22 (D04-Y180/F404-LP11) (antibody, human IgG1, kappa)
heavy: MEVQLVESGGGLVQPGGSLRLSCAASGFNISDYDIHWVRQAPGKGLEWVGGIDPADGSTDYADSVKGRFTISADTSKNTAYLQMNSLRAEDTAVYYCARDYGVYDYWGQGTLVTVSSASTKGPSVFPLAPSSKSTSGGTAALGCLVKDYFPEPVTVSWNSGALTSGVHTFPAVLQSSGLSLSSVVTVPSSSLGTQTYICNVNHKPSNTKVDKKVEPKSCDKTHTCPPCPAPELLGGPSVFLFPPKPKDTLMISRTPEVTCVVVDVSHEDPEVKFNWYVDGVEVHNAKTKPREEQYNSTYRVVSVLTVLHQDWLNGKEYKCKVSNKALPAPIEKTISKAKGQPREPQVYTLPPSREEMTKNQVSLTCLVKGFYPSDIAVEWESNGQPENNYKTTPPVLDSDGSFLYSKLTVDKSRWQQGNVFSCSVMHEALHNHYTQKSLSLSPGK
light: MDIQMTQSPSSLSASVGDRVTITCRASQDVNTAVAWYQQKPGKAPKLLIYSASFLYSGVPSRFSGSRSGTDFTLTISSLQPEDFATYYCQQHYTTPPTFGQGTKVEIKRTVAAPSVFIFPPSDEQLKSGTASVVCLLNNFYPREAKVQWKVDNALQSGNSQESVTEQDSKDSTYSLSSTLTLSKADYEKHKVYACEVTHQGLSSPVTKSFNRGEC
modifications: pAMF at Y180 and F404 (EU), each linked to LP11
B6: Conjugate 1 (D04-Y180/F404-LP1) (antibody, human IgG1, kappa)
heavy: B5 heavy
light: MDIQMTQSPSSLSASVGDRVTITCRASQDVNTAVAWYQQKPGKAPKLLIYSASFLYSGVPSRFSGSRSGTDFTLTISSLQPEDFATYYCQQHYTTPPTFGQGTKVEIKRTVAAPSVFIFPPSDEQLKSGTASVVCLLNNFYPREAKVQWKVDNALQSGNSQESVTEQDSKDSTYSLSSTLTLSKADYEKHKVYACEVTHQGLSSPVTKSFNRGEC
modifications: pAMF at Y180 and F404 (EU), each linked to LP1
B7: D04-Y180/F404-LP32 (printed under conjugate number 21, DAR 3.85) (antibody, human IgG1, kappa)
heavy: B5 heavy
light: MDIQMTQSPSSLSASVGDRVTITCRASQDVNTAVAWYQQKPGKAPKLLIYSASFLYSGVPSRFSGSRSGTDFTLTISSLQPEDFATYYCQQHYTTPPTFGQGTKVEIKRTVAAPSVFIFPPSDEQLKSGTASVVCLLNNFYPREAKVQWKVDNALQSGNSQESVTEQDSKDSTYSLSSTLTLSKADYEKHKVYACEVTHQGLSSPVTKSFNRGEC
modifications: pAMF at Y180 and F404 (EU), each linked to LP32
B8: Conjugate 21 (D04-F404-LP32) (antibody, human IgG1, kappa)
heavy: MEVQLVESGGGLVQPGGSLRLSCAASGFNISDYDIHWVRQAPGKGLEWVGGIDPADGSTDYADSVKGRFTISADTSKNTAYLQMNSLRAEDTAVYYCARDYGVYDYWGQGTLVTVSSASTKGPSVFPLAPSSKSTSGGTAALGCLVKDYFPEPVTVSWNSGALTSGVHTFPAVLQSSGLYSLSSVVTVPSSSLGTQTYICNVNHKPSNTKVDKKVEPKSCDKTHTCPPCPAPELLGGPSVFLFPPKPKDTLMISRTPEVTCVVVDVSHEDPEVKFNWYVDGVEVHNAKTKPREEQYNSTYRVVSVLTVLHQDWLNGKEYKCKVSNKALPAPIEKTISKAKGQPREPQVYTLPPSREEMTKNQVSLTCLVKGFYPSDIAVEWESNGQPENNYKTTPPVLDSDGSFLYSKLTVDKSRWQQGNVFSCSVMHEALHNHYTQKSLSLSPGK
light: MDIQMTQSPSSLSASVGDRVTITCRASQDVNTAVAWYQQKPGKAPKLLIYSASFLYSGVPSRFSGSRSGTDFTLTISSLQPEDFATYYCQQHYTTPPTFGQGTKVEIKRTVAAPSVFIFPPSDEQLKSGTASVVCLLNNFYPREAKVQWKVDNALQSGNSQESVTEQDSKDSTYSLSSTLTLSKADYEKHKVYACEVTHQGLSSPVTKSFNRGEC
modifications: pAMF at F404 (EU), linked to LP32
B9: Conjugate 19 (D04-F404-LP30) (antibody, human IgG1, kappa)
heavy: B8 heavy
light: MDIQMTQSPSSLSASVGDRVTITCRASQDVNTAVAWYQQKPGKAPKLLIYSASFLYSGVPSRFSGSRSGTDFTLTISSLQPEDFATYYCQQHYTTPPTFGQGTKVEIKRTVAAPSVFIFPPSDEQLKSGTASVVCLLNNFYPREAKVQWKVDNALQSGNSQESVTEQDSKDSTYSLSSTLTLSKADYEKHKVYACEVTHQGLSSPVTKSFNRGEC
modifications: pAMF at F404 (EU), linked to LP30
B10: Conjugate 20 (D04-F404-LP31) (antibody, human IgG1, kappa)
heavy: B8 heavy
light: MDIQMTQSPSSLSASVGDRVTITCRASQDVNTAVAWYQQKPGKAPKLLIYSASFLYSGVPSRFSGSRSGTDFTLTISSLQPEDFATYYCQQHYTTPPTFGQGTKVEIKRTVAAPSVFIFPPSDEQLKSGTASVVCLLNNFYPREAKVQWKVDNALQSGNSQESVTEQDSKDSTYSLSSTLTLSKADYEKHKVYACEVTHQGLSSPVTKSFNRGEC
modifications: pAMF at F404 (EU), linked to LP31
B11: Conjugate 17 (D04-F404-LP14) (antibody, human IgG1, kappa)
heavy: B8 heavy
light: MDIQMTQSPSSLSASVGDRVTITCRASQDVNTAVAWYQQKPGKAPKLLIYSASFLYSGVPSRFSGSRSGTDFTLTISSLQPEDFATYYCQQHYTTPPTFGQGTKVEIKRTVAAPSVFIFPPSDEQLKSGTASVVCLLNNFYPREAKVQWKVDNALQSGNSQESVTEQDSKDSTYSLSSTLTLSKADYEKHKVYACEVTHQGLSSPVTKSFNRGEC
modifications: pAMF at F404 (EU), linked to LP14
B12: Conjugate 23 (D04 x D04-F404-LP8) (antibody, human IgG1, kappa)
heavy 1: B8 heavy with T366W
heavy 2: B8 heavy with T366S, L368A, Y406V
light: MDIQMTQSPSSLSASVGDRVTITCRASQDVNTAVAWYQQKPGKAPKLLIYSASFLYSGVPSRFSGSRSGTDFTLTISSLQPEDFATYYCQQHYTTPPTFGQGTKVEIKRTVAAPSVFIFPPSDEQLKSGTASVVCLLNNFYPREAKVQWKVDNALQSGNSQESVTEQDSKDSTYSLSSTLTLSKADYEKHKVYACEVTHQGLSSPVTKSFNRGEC
modifications: pAMF at F404 (EU), linked to LP8
B13: Conjugate 24 (D04 x C01-F404-LP8 biparatopic) (bispecific antibody, human IgG1, kappa)
heavy 1: B8 heavy with T366W
heavy 2: B8 heavy with S31N, D32G, G51Y, A55N, S58A, D60N, Y104F, T366S, L368A, Y406V
light: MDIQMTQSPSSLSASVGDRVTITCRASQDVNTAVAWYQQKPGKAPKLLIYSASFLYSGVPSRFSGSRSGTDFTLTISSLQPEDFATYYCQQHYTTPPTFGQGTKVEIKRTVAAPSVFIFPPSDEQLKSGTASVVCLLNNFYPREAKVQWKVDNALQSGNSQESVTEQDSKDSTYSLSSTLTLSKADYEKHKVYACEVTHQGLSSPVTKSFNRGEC
modifications: pAMF at F404 (EU), linked to LP8
B14: Conjugate 25 (D04 x B09-F404-LP8 biparatopic) (bispecific antibody, human IgG1, kappa)
heavy 1: B8 heavy with T366W
heavy 2: MEVQLVESGGGLVQPGGSLRLSCAASGFNINNSYIHWVRQAPGKGLEWVGIIDPNNGSTAYADSVKGRFTISADTSKNTAYLQMNSLRAEDTAVYYCARSRWYRVLWSYVLDYWGQGTLVTVSSASTKGPSVFPLAPSSKSTSGGTAALGCLVKDYFPEPVTVSWNSGALTSGVHTFPAVLQSSGLYSLSSVVTVPSSSLGTQTYICNVNHKPSNTKVDKKVEPKSCDKTHTCPPCPAPELLGGPSVFLFPPKPKDTLMISRTPEVTCVVVDVSHEDPEVKFNWYVDGVEVHNAKTKPREEQYNSTYRVVSVLTVLHQDWLNGKEYKCKVSNKALPAPIEKTISKAKGQPREPQVYTLPPSREEMTKNQVSLSCAVKGFYPSDIAVEWESNGQPENNYKTTPPVLDSDGSFLVSKLTVDKSRWQQGNVFSCSVMHEALHNHYTQKSLSLSPGK
light: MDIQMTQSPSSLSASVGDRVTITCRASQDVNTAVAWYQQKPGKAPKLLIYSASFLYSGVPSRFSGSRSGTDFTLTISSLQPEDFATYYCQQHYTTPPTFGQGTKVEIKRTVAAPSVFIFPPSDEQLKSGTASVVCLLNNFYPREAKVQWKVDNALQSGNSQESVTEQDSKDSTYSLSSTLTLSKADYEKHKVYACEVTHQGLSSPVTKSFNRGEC
modifications: pAMF at F404 (EU), linked to LP8
B15: Conjugate 26 (D04 x A05-F404-LP8 biparatopic) (bispecific antibody, human IgG1, kappa)
heavy 1: B8 heavy with T366W
heavy 2: MEVQLVESGGGLVQPGGSLRLSCAASGFNIKEYHIHWVRQAPGKGLEWVGYISPNSGSTYYADSVKGRFTISADTSKNTAYLQMNSLRAEDTAVYYCARDHRRYVRPFDYWGQGTLVTVSSASTKGPSVFPLAPSSKSTSGGTAALGCLVKDYFPEPVTVSWNSGALTSGVHTFPAVLQSSGLYSLSSVVTVPSSSLGTQTYICNVNHKPSNTKVDKKVEPKSCDKTHTCPPCPAPELLGGPSVFLFPPKPKDTLMISRTPEVTCVVVDVSHEDPEVKFNWYVDGVEVHNAKTKPREEQYNSTYRVVSVLTVLHQDWLNGKEYKCKVSNKALPAPIEKTISKAKGQPREPQVYTLPPSREEMTKNQVSLSCAVKGFYPSDIAVEWESNGQPENNYKTTPPVLDSDGSFLVSKLTVDKSRWQQGNVFSCSVMHEALHNHYTQKSLSLSPGK
light: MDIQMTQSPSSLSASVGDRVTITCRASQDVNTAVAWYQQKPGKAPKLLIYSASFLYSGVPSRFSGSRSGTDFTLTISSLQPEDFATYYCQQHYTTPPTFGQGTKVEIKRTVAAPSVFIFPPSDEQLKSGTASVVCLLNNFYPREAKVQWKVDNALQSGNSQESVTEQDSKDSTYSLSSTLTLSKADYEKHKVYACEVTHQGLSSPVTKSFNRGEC
modifications: pAMF at F404 (EU), linked to LP8
B16: Conjugate 27 (D04 x B04-F404-LP8 biparatopic) (bispecific antibody, human IgG1, kappa)
heavy 1: B8 heavy with T366W
heavy 2: MEVQLVESGGGLVQPGGSLRLSCAASGFNIAGYAIHWVRQAPGKGLEWVGLITPTPGTSNYADSVKGRFTISVDTSKNTAYLQMNSLRAEDTAAYYCARDYRGVYLYSFYYDYWGQGTLVTVSSASTKGPSVFPLAPSSKSTSGGTAALGCLVKDYFPEPVTVSWNSGALTSGVHTFPAVLQSSGLYSLSSVVTVPSSSLGTQTYICNVNHKPSNTKVDKKVEPKSCDKTHTCPPCPAPELLGGPSVFLFPPKPKDTLMISRTPEVTCVVVDVSHEDPEVKFNWYVDGVEVHNAKTKPREEQYNSTYRVVSVLTVLHQDWLNGKEYKCKVSNKALPAPIEKTISKAKGQPREPQVYTLPPSREEMTKNQVSLSCAVKGFYPSDIAVEWESNGQPENNYKTTPPVLDSDGSFLVSKLTVDKSRWQQGNVFSCSVMHEALHNHYTQKSLSLSPGK
light: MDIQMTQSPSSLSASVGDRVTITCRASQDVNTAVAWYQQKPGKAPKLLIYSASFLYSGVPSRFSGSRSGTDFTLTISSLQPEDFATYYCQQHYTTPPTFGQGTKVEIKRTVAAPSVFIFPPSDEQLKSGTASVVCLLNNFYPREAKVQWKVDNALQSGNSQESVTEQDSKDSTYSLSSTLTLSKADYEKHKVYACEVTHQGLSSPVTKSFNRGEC
modifications: pAMF at F404 (EU), linked to LP8
B17: Conjugate 28 (A05 x B04-F404-LP8 biparatopic) (bispecific antibody, human IgG1, kappa)
heavy 1: B15 heavy 2 with S370W, A372L, V410Y
heavy 2: B16 heavy 2
light: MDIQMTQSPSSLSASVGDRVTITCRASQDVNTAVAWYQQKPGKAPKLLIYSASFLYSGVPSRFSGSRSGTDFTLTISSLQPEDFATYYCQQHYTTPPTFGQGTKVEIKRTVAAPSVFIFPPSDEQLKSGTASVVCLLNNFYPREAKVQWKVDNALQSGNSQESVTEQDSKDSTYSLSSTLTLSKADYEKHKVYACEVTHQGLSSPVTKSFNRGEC
modifications: pAMF at F404 (EU), linked to LP8
B18: Conjugate 29 (A05 x C06-F404-LP8 biparatopic) (bispecific antibody, human IgG1, kappa)
heavy 1: B15 heavy 2 with S370W, A372L, V410Y
heavy 2: MEVQLVESGGGLVQPGGSLRLSCAASGFNITSYGIHWVRQAPGKGLEWVGWIAPNSGNTYYADSVKGRFTISADTSKNTAYLQMNSLRAEDTAVYYCARDIVSTYSYYYLMDYWGQGTLVTVSSASTKGPSVFPLAPSSKSTSGGTAALGCLVKDYFPEPVTVSWNSGALTSGVHTFPAVLQSSGLYSLSSVVTVPSSSLGTQTYICNVNHKPSNTKVDKKVEPKSCDKTHTCPPCPAPELLGGPSVFLFPPKPKDTLMISRTPEVTCVVVDVSHEDPEVKFNWYVDGVEVHNAKTKPREEQYNSTYRVVSVLTVLHQDWLNGKEYKCKVSNKALPAPIEKTISKAKGQPREPQVYTLPPSREEMTKNQVSLSCAVKGFYPSDIAVEWESNGQPENNYKTTPPVLDSDGSFLVSKLTVDKSRWQQGNVFSCSVMHEALHNHYTQKSLSLSPGK
light: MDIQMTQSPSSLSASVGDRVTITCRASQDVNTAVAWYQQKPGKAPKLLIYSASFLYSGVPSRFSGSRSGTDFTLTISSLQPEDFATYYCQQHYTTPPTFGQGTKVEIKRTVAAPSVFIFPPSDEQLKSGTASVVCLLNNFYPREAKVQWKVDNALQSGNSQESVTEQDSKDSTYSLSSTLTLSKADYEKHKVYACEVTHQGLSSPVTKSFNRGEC
modifications: pAMF at F404 (EU), linked to LP8
B19: SRP2188-F06 (antibody, IgG1, V domains shown)
VH: B1 VH with P30L, F32Y, E33D, A49G, R50G, E52D
VL: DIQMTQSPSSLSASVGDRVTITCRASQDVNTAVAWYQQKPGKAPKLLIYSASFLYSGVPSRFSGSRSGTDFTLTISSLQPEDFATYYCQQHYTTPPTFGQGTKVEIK
notes: as for B1

Legend:
[1] = target: T1, human ROR1 (hROR1) expressed on cells (human, UniProt Q01973 30-937); assay: flow cytometry, HCT116-hROR1 cells
T1 construct: Mino cells are the target positive cells of the killing assay; also called receptor tyrosine kinase like orphan receptor 1; HCT 116-hROR1

human ROR1-ECD = target: T2, human ROR1-ECD (human, UniProt Q01973 30-406); assay: SPR (Biacore), antibody captured by anti-Fc, human ROR1-ECD analyte
T2 construct: Bought protein; also called hROR1; ROR1-extracellular domain

[2] = target: T1, human ROR1 (hROR1) expressed on cells; assay: cell-based or functional assay
[3] = target: receptor tyrosine kinase orphan receptor 1 (ROR1) on Ntera-2 cells (human, UniProt Q01973 30-937); assay: cell-based or functional assay

Row | Binder | Bmax (MFI) [1] | Kd [1] | Kd (human ROR1-ECD) | koff (human ROR1-ECD) | kon (human ROR1-ECD) | Mino Nb-PBD, drug-conjugated 2° antibody Cell Killing IC50 [2] | Mino Nb-PBD, drug-conjugated 2° antibody Cell Killing Span [2] | cell killing EC50, NTERA-2 cells [3] | cell killing Span, NTERA-2 cells [3]
1 | B1 | 9030 MFI | 0.02 nM | 0.428 nM | 0.000422 s⁻¹ | 987000 M⁻¹ s⁻¹ | 0.00071 nM | 75% | – | –
2 | B2 | 9480 MFI | 0.03 nM | 0.313 nM | 0.000249 s⁻¹ | 794000 M⁻¹ s⁻¹ | 0.00099 nM | 68% | – | –
3 | B3 | 8920 MFI | 0.02 nM | 0.49 nM | 0.000443 s⁻¹ | 905000 M⁻¹ s⁻¹ | 0.00047 nM | 74% | – | –
4 | B4 | 8960 MFI | 0.03 nM | 0.373 nM | 0.000316 s⁻¹ | 846000 M⁻¹ s⁻¹ | 0.00097 nM | 70% | – | –
5 | B5 | – | – | – | – | – | – | – | > 10 nM | < 20%
6 | B6 | – | – | – | – | – | – | – | 0.085 nM | 56%
7 | B7 | – | – | – | – | – | – | – | > 10 nM | < 20%
8 | B8 | – | – | – | – | – | – | – | 2.96 nM | 97%
9 | B9 | – | – | – | – | – | – | – | 0.043 nM | 83%
10 | B10 | – | – | – | – | – | – | – | > 10 nM | > 60%
11 | B11 | – | – | – | – | – | – | – | 0.03 nM | 77%
12 | B12 | – | – | – | – | – | – | – | 0.022 nM | 83%
13 | B13 | – | – | – | – | – | – | – | 0.017 nM | 85%
14 | B14 | – | – | – | – | – | – | – | 0.018 nM | 87%
15 | B15 | – | – | – | – | – | – | – | 0.028 nM | 84%
16 | B16 | – | – | – | – | – | – | – | 0.024 nM | 89%
17 | B17 | – | – | – | – | – | – | – | 0.028 nM | 88%
18 | B18 | – | – | – | – | – | – | – | 0.027 nM | 88%
19 | B19 | 10200 MFI | 0.03 nM | 0.384 nM | 0.000357 s⁻¹ | 931000 M⁻¹ s⁻¹ | 0.00055 nM | 75% | – | –
